Patent US7932227 (UNIVERSITY OF VIRGINIA PATENT FOUNDATION, dated 2011)

Experiments:
human syndecan-1 (SDC1) [1] = target: T1, human syndecan-1 (SDC1) (human, UniProt P18827 23-310, heparan sulfate and chondroitin sulfate chains; the lacritin-bindable form is partly or wholly deglycanated (heparanase or heparitinase)); experiment: C-10-intein beads, HEK293T/SDC1 lysate, B-B4 blot
T1 construct: Seen as 190 kDa multimer and 80 kDa band on blots; also called cell surface SDC1; native SDC1
T1 sequence: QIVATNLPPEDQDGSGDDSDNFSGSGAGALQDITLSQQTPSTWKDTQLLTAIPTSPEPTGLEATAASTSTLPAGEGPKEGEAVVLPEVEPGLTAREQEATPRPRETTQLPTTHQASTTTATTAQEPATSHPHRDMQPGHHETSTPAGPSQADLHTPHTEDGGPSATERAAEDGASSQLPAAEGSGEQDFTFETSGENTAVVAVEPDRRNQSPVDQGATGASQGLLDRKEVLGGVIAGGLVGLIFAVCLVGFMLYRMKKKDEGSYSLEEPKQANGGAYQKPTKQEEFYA
Protocol: (§1) All lacritin truncations were expressed as intein fusion proteins for affinity precipitation. Asterisk indicates mitogenic domain (Wang et al, submitted), and boxes represent PSIPRED-predicted alpha helices. (B) Lacritin-, C-5-, C-10-, C-15-, C-25- and C-59-intein beads were incubated with lysates from HEK293T cells stably expressing human SDC1. Beads were washed and treated with heparitinase I/chondroitinase ABC. The digests were centrifuged, and pellets (P) and supernatants (S) blotted with mAb B-B4 for SDC1 core protein, all as in FIG. 2. (C) Incubation of lacritin-, N-15- and N-24-intein beads with the same human SDC1 lysates was followed with identical washing, heparitinase I/chondroitinase ABC digestion, centrifugation and B-B4 mAb blotting. Lys, lysate. Figure 3B: Figure 3C: Figure 4A: FIG. 4. Lacritin-SDC1 binding is inhibited by soluble hS1ED, lacritin and N-24, but not by C-25, C-59, HS, CS, SDC2 or SDC4. (A) Top row, lacritin-intein beads were incubated with human SDC1 lysates from stably expressing HEK293T cells in the presence of increasing amounts of soluble HS (70-700 µg), HS (700 µg) plus CS (700 µg), lacritin (14-700 µg) or no inhibitor (−). Quantity of soluble inhibitor was calibrated relative to the approximately 7-8 µg of human SDC1 elutable from lacritin-intein beads with 1 M NaCl. […] (B) Quantification of inhibition binding.

human syndecan-1 (SDC1) [2] = target: T1, human syndecan-1 (SDC1); experiment: N-15-intein beads, HEK293T/SDC1 lysate, B-B4 blot
Protocol: as §1

human syndecan-1 (SDC1) [3] = target: T1, human syndecan-1 (SDC1); experiment: soluble competitor in lacritin-intein affinity precipitation of SDC1
Protocol: as §1

human syndecan-1 (SDC1) [4] = target: T1, human syndecan-1 (SDC1); experiment: C-5-intein beads, HEK293T/SDC1 lysate, B-B4 blot
Protocol: as §1

human syndecan-4 (SDC4) = target: T2, human syndecan-4 (SDC4) (human, UniProt P31431 19-198, heparan sulfate chains); experiment: SDC4 purified on FGF2-GST, salt eluted, heparitinase digested, incubated with lacritin-intein beads
T2 construct: also called native SDC4
T2 sequence (looked up): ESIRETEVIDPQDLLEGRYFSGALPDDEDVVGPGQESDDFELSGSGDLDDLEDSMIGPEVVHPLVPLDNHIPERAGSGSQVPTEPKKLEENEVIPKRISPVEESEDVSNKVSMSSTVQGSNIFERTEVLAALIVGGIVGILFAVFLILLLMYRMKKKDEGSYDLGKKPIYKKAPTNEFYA
Protocol: (§2) Lysates were cleared by centrifugation (20,000×g) at 4° C., and protein concentration of supernatant was estimated by the BCA assay (Pierce, Rockford Ill.). Lacritin-intein or lacritin-GST (5 µg) and FGF2-GST fusion proteins were respectively bound to chitin beads (New England Biolabs, Ipswich Mass.) or glutathione-Sepharose beads (Amersham Biosciences, Piscataway N.J.). Beads were incubated with lysates (~200 µg of SDC1 stably expressing HEK293T cells) overnight at 4° C., and washed three times with binding buffer as above (each wash three times the bead volume). In competition assays, SDC1 lysates were mixed with increasing amounts of soluble lacritin, HS, HS plus CS (Seikagaku America, Falmouth Mass.), bacterially expressed human SDC1 ectodomain (hS1ED), native SDC2, native SDC4, N-24 or C-25. Mixtures were then applied to lacritin immobilized beads, and further studied as described below. For sequential pull down assays, cell lysates were sequentially affinity precipitated with FGF2-GST or lacritin-intein. After FGF2-GST depletion of all available FGF-bindable SDC1, one-half was precipitated with lacritin-intein. The other half was methanol precipitated overnight and resuspended in heparitinase buffer. […]

human syndecan-2 (SDC2) = target: T3, human syndecan-2 (SDC2) (human, UniProt P34741 19-201, heparan sulfate chains); experiment: SDC2 purified on FGF2-GST, salt eluted, heparitinase digested, incubated with lacritin-intein beads
T3 construct: also called native SDC2
Protocol: as §2

human syndecan-1 (SDC1) [5] = target: T1, human syndecan-1 (SDC1); experiment: lacritin-intein-chitin column, detergent lysate of surface biotinylated HSG cells, 1 M NaCl elution, streptavidin blot, mass spectrometry
Protocol: Cell surface biotinylation, and affinity chromatography followed the method of Chen et al (1997). Briefly, six 150 mm culture dishes of 80% confluent HSG cells were washed twice on ice with ice-cold PBS and incubated for 30 min with EZ-Link Sulfo-NHS-LC Biotin (Pierce, Rockford Ill.). Cells were then washed twice with PBS-glycine, gently loosened with a cell scraper, and pelleted at 4° C. The pellet was twice resuspended in 25 ml PBS-glycine, and incubated for 30 min in 1 ml lysis buffer (50 mM Tris HCl, pH 7.4, 100 mM NaCl, 5 mM MnCl2, 2 mM PMSF, 200 mM n-octyl-β-D-glucopyranoside, and protease inhibitors (Roche Diagnostics, Penzberg Germany)). Lysate was centrifuged for 15 min at 4° C., and the supernatant applied to a 1 ml pre-column then washed through with 1 ml of binding buffer (50 mM Tris HCl, pH 7.4, 100 mM NaCl, 5 mM MnCl2, 2 mM PMSF, 50 mM n-octyl-β-D-glucopyranoside) and collected. […] For the latter, blots were blocked with PBS containing 0.1% Tween-20 and 2.5% milk for 1 h at 37° C., washed three times with PBS/0.1% Tween-20, incubated in 50 ml of 1:1000 streptavidin-horseradish peroxidase conjugate (Amersham Biosciences, Piscataway N.J.) in PBS/0.1% Tween-20, washed five times with the same buffer and then detected using ECL reagent (Pierce, Rockford Ill.). […]

human syndecan-1 (SDC1) [6] = target: T1, human syndecan-1 (SDC1); experiment: soluble competitor of lacritin-intein beads for SDC1 in HEK293T lysate, B-B4 blot
Protocol: as §1

human syndecan-1 (SDC1) [7] = target: T1, human syndecan-1 (SDC1); experiment: N-24-intein beads, HEK293T/SDC1 lysate, B-B4 blot
Protocol: as §1

[8] = target: T4, alpha-2C-adrenergic receptor (ADRA2C) (human, UniProt P18825 1-462, limits assumed); experiment: low salt competition against 125I-iodoclonidine on immobilized human ADRA2C, repeated assays
T4 sequence (looked up): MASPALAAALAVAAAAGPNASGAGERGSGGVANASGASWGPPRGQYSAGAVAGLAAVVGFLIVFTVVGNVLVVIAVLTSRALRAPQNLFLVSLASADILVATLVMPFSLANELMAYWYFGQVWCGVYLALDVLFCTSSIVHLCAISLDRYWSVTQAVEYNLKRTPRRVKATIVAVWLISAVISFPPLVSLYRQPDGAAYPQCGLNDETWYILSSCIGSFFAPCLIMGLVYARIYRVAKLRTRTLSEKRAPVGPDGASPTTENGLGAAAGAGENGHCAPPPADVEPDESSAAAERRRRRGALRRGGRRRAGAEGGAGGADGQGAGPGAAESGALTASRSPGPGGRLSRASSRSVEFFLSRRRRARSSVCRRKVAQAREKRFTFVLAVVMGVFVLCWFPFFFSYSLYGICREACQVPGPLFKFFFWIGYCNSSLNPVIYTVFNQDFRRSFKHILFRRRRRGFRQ
Protocol: If we are correct that syndecan-1 increases lacritin's affinity for a G-protein coupled receptor (GPCR), possibly some low affinity GPCR binding can be detected without syndecan-1 in low salt. To ask this question, a low salt screen of 31 immobilized human GPCRs in which 10 nM lacritin, N-24 or C-25 were asked to compete with 125I-receptor ligand for receptor binding. […] Although preliminary, this compares to 1698 nM for native agonist epinephrine. Possibly N-24's lack of seven negatively charged residues may improve binding in the absence of syndecan-1.

T3 sequence (P34741 19-201 limits assumed): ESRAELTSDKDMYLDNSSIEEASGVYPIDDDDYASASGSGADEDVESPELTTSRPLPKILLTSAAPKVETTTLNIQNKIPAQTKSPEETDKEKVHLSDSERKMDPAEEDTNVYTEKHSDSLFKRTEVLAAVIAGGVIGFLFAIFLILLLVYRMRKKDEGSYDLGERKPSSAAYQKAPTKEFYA

B1: C-10 lacritin-intein (ligand, not shown: small tags and cut ends)
chain: EDASSDSTGADPAQEAGTSKPNEEISGPAEPASPPETTTTAQETSAAAVQGTAKVTSSRQELNPLKSIVEKSILLTEQALAKAGKGMHGGVPGGKQFIENGSEFAQKLL
binding result (human syndecan-1 (SDC1) [1]): binds

B2: N-15 lacritin-intein (ligand, not shown: small tags and cut ends)
chain: AGTSKPNEEISGPAEPASPPETTTTAQETSAAAVQGTAKVTSSRQELNPLKSIVEKSILLTEQALAKAGKGMHGGVPGGKQFIENGSEFAQKLLKKFSLLKPWA
binding result (human syndecan-1 (SDC1) [2]): binds

B3: soluble C-59 lacritin (ligand)
chain: EDASSDSTGADPAQEAGTSKPNEEISGPAEPASPPETTTTAQETSAAAVQGTAKVTSSRQ
notes: Range counted by me
binding result (human syndecan-1 (SDC1) [3]): no binding (tested: 14 µg)

B4: C-5 lacritin-intein (ligand, not shown: small tags and cut ends)
chain: EDASSDSTGADPAQEAGTSKPNEEISGPAEPASPPETTTTAQETSAAAVQGTAKVTSSRQELNPLKSIVEKSILLTEQALAKAGKGMHGGVPGGKQFIENGSEFAQKLLKKFSL
notes: All lacritin truncations were expressed as intein fusion proteins
binding result (human syndecan-1 (SDC1) [4]): binds

B5: lacritin-intein (lacritin coupled to chitin beads via chitin-binding intein) (ligand, not shown: small tags and cut ends)
chain: EDASSDSTGADPAQEAGTSKPNEEISGPAEPASPPETTTTAQETSAAAVQGTAKVTSSRQELNPLKSIVEKSILLTEQALAKAGKGMHGGVPGGKQFIENGSEFAQKLLKKFSLLKPWA
notes: Bacterial fusion protein held on chitin beads; also called lacritin-intein beads; lacritin column
binding result (human syndecan-4 (SDC4)): no binding | binding result (human syndecan-2 (SDC2)): no binding | binding result (human syndecan-1 (SDC1) [5]): binds

B6: soluble lacritin (recombinant) (ligand)
chain: EDASSDSTGADPAQEAGTSKPNEEISGPAEPASPPETTTTAQETSAAAVQGTAKVTSSRQELNPLKSIVEKSILLTEQALAKAGKGMHGGVPGGKQFIENGSEFAQKLLKKFSLLKPWA
notes: also called intact lacritin
binding result (human syndecan-1 (SDC1) [6]): binds

B7: N-24 lacritin-intein (ligand, not shown: small tags and cut ends)
chain: ISGPAEPASPPETTTTAQETSAAAVQGTAKVTSSRQELNPLKSIVEKSILLTEQALAKAGKGMHGGVPGGKQFIENGSEFAQKLLKKFSLLKPWA
binding result (human syndecan-1 (SDC1) [7]): binds

B8: soluble N-24 lacritin (ligand)
chain: ISGPAEPASPPETTTTAQETSAAAVQGTAKVTSSRQELNPLKSIVEKSILLTEQALAKAGKGMHGGVPGGKQFIENGSEFAQKLLKKFSLLKPWA
notes: Range counted by me
binding result (human syndecan-1 (SDC1) [6]): binds | Ki [8]: 1290 nM

B9: soluble C-25 lacritin (ligand)
chain: EDASSDSTGADPAQEAGTSKPNEEISGPAEPASPPETTTTAQETSAAAVQGTAKVTSSRQELNPLKSIVEKSILLTEQALAKAGKGMHGGVPGG
notes: Range counted by me
binding result (human syndecan-1 (SDC1) [3]): no binding (tested: 14 µg)
